Results from PMC5863699, “Sensing iron availability via the fragile [4Fe–4S] cluster of the bacterial transcriptional repressor RirA† †Electronic supplementary information (ESI) available. See DOI: 10.1039/c7sc02801f” (Chemical Science, 2017).

Biological target: the molecule itself
Test: native MS; ESI-MS under non-denaturing conditions, positive ion mode; cluster-reconstituted [4Fe–4S] RirA, ~30 μM in cluster, 250 mM ammonium acetate pH 7.3; monomer to dimer

B1: Rhizobial iron regulator A (RirA) from Rhizobium leguminosarum (natural protein, UniProt Q9AE46 1-160, looked up)
chain: MRLTKQTNYAVRMLMYCAANDGHLSRIPEIAKAYGVSELFLFKILQPLNKAGLVETVRGRNGGVRLGKPAADISLFDVVRVTEDSFAMAECFEDDGEVECPLVDSCGLNSALRKALNAFFAVLSEYSIDDLVKARPQINFLLGITGEPAYRKPAIVAPAA
notes: RirA, Rhizobium leguminosarum strain 8401 (pRL1JI), rirA gene CAC35510, codon-optimised for E. coli; calculated mass of the monomer 17.4 kDa (apo predicted 17 442 Da, observed 17 441 Da); No tag is mentioned; It carries an iron–sulfur cluster as cofactor: [4Fe–4S] after reconstitution, and mainly [2Fe–2S] after 1 mM EDTA for 2.5 h; Less than 5% of the preparation was truncated, lacking 20 …
stoichiometry N: 2
